Measured values from paper PMC2001758.

Target: high affinity saturable binding sites for LDL on the human non-small cell lung tumour line L-DAN (LDL-receptors) (human (endogenous in L-DAN)) (UniProt P01130)
Assay: radioligand binding; 125I-labelled LDL on cells of the human non-small cell lung tumour line L-DAN; saturable binding

Sequence of high affinity saturable binding sites for LDL on the human non-small cell lung tumour line L-DAN (LDL-receptors) (human (endogenous in L-DAN)) (P01130 22-860): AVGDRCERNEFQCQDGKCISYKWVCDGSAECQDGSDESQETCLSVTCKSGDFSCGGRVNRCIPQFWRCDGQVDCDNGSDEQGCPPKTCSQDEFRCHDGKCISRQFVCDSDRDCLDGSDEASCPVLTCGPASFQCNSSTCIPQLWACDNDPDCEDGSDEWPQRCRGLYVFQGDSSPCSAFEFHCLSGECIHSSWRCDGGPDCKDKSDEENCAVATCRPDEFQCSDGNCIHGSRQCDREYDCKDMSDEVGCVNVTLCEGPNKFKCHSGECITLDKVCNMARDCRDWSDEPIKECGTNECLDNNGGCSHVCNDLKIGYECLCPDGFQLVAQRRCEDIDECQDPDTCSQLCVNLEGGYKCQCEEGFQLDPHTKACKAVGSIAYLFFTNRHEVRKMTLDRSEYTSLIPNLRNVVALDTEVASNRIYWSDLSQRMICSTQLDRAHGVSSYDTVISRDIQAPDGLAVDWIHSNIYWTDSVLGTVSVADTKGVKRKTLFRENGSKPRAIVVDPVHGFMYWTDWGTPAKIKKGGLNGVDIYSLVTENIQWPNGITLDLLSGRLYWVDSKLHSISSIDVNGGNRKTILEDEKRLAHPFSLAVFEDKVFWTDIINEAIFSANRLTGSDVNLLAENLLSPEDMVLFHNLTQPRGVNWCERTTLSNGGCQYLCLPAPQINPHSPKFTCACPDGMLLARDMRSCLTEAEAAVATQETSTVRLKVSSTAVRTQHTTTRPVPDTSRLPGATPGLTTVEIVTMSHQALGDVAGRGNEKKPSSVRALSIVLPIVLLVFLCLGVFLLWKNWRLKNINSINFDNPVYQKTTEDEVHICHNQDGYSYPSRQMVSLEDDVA

Substance: low density lipoprotein (LDL) (from UniProt P04114 28-4563)
- Km (p ml ' (as printed, garbled)): 40
